This note sets out measurements from the domain aggregation screens of Martell et al. (2025).

The series can be described thus: soluble fraction after stress (log2 fold change); higher = more stays soluble; pooled small domains, quantitative proteomics. The note with it: stress: 50 degC. In outline:
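The measure of aggregation propensity here is the base-two logarithm of the fold change in the soluble amount of each protein after stress. A higher value means more of that protein stays in solution. Stress was applied at 50°C to pooled libraries of small protein domains, read out by high-throughput quantitative proteomics.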

As for “HMRPLISQTLRIDRGEGDIAGPLGVLAKEYPHLSMGSYPFQKDGIYGAHVVIRGSDPGMVEAAMDKLKAAF”, the “soluble fraction (log2)” value is 0.018.
In the case of “HMDIKDRSGVTIDESNEAQQESIIRESWAEQKISGNVDNYIAYLKANGMLLETAKIELAALQEKDASLRE” it was 0.0421; in that of “HMSSSYVYGGNGEIVILSDVSKHLNVYNLNGQKVTDVNLTAGELQRISIATGIYVVGGKKIVV”, -2.92; in that of “HMKQVSDTGAIDAAIREVMDANPDKVAEYRSGKDKLFGFFVGQIMRAMAGKAAPVVVNDRLKALLD”, 0.355.
In the case of “HMSEKRLHLVVDESDVNTRIDKYIADELDGYSRSFIQKLIKDNNVLVNGRAVKPNYNIGISDNIDIVLPKL” it was -0.00587; in that of “HMNETTVPDVINQNISTGKIIIEDADLEYRIQYIPSEKSSSIGTIINSIPIYGKRVKSGTIVDLKVLG”, -0.0142; in that of “HMKTYGGDNSLHKFDEHHSWMVAKYGPVVKQTINGETKWLKVKKDLTLAQVKKMKLEDVLLPKSQT”, -0.152.
Then “HMDFSENEPVTVRVLSILKNNTIRIAVKGAVLQAQTALSQDIREGAFLLMRVHITDNTVVLTPY”, with 0.0533; and “HMKPEQIELTFSGTTAMRLDKFLAENQPGLSRAKLQAIISSGSVEVNGKVITKQAFKLDPGDLVKALIPE”, with 0.0295.
On to “HMNKNNLRNVSSKIRKSRRVLNLSQAELSKKLDISPSYLNLIESGKRPITVPLLIKLGNILGISLKDL”, for which the “soluble fraction (log2)” value is -1.27.
Then “HMGTVSSGSSSTDTPFSLGEIVRHKVFGEGVVLSIEGQGDASRIQINFNTAGTKWLVTAYADLEK”, with -0.219.
In the case of “HMIERVLRTEEHIEAFAGEEVEAKLFAPIDGKKTLRGILGGIEDGRVILTVGDTEYRIEHAKISRLTTVFD” it was -0.122; in that of “HMSSVGELEVGNIFEGTVNSVRGGKVLLALGNGQMVLAQMDGRVNITPGSSMFFQVKSNDGETVAIRPYTG”, -0.133; in that of “HMGTVVKRNALVHAWTEFNGGRASTKLLALGPGKVGEWIELENPQSGRKLRGEVQVDGSVRLG”, 0.11.
In the case of “HMDQTIFFGQQKAINNLSTDAGLSATELDEYLKKRYKRPLYQLTQAEGAEIIKGFQDGALSRSSILDYTK” it was -0.00165.
Turning to “HMDPTYYFNLYPNPSKDEVSLFTNFTGKINIEILDLAGKSILSDNPISTISLVSLKEGLYLVKVKS”, the “soluble fraction (log2)” value was -0.208.
Then “HMDEQLAWLYRKINAFSEIDKALILLYLEDKKYDEIAETLGISSVNARVKMNRIKKRLKEMINDR”, with -2.53.
Then “HMGGQYQVRPGETLNQIAARVRPSNMSLSETQKAIIQANPDIFKNGNPNLIFAGDILRIPTGNQI”, with 0.211; and “HMEMTEDEITKQFDAMEREAKKEIDTGADKRAFMYGVSRTAAGMAGKNPKYARFITDKAKEVIENIAKYK”, with 0.108; and “HMHAPRIEVVQIDPEKIGALIGPGGKNIRRITEVTGANLDIDEDNSGKIRVYASDSEAMNRALQEIDLVT”, with 0.193.
Then “HMLRKTTDLDAIRSVAKDVIDQNPKAVEDYVGGKESAIGFLLGQVMRATKGTADANTVRELLKEILDS”, with 0.311; and “HMNKLSISALAETVSTKRKEKSMTQQDLSDATGINRALISRLEQKDFIPSIPQLEKLEEILGFELEEVF”, with -0.0428.
Take “HMIISPKKLEYRQRIINALGDRKMSLNELSKAMGYKGITTKLSFTVDDMIKSGVIEKVMVGAYAKLHIP”: the “soluble fraction (log2)” value is -1.65.
In the case of “HMVGGIAIGQFNVPRGSVKVTAGGRLLQEGLDYTVNYQAGRVQILDESLKNSNVPIEISTESNS” it was 0.229; in that of “HMIKRDLAFSEFIAEVKAGQVREVTIKGNSISGNLNDGREFNTYAPNDPNLVKTLTDQGVLIRAIPLE”, -0.0273; in that of “HMRMRPNERQKRIIELLSFRRHETIGNFANEFGVSRDTIKRDIITLQEEYPIISERGYEGGISLPDGYYI”, -0.263.
Then “HMDEMPVEFVKISIKAGHPWENRKIKDLASLPDLLLVLILRGEERIIPNGNTVVLAGDKIVLSALSPE”, with -0.936; and “HMNKMHKLPSVSEILNKVRLQKIHNESFIKFKIKEEIDRYRKLAKKDQLFLSRDEITYEIIEKLLNFSMPS”, with -2.57.
As for “HMNNGAEIGAEIRSLRKARGLTLEDLAAKIGRSVGYISQVERGISPLTIPNLKAIAEVLGVGINWFFRGEA”, the “soluble fraction (log2)” value is -0.552.
In the case of “HMGRDWKTDLLNLATARGWGDVSYEVTGEGPDHARVYTAVAIVANQKTGTGVGPSKKEAERLAAEQAYRML” it was -0.142; in that of “HMNIQPAMLNAANGGVAWKERGISMSQIMKRNAHTAEGSQKLWDYAFENFFQKNIDAGNIRDDR”, 0.0644.
Then “HMEQNHYEVLGVSRDAIPEEIRKAYFEYARKLHPDANPDPGAAEQFMRIQTAYDVLSNPDRRHEYDGLLPP”, with -0.000773; and “HMGESYGPVRRGETLWSIAEKVKPAGVSTQKELAAIYAANPQAFIRGDINLLKAGAELRLPSPEAL”, with 0.172; and “HMINKDNLIEEILKFINTKIADISSNNPLFDIVAKPYISKVVTNNVSKLDKALSLIADDKGMVDADGLLT”, with -0.292.
Then “HMEFLDLEIDVDATDGRLLAFLAAKGEVVSQTFNDTIITVRVRMPTGAMGQVHRSALAIRPA”, with -0.507.
Take “HMGKSPLDALSAREKEVLTYITRGVSINDIAAVLYLSPKTVSTHKTNLMQKLGIENNADLILFGVNHGLND”: the “soluble fraction (log2)” value is -0.513.
In the case of “HMSEFAYPISLNGKTKFNLALSLALTKEEIEKEVLANADVQKFLNGQTPKKLIVVPGKIVNVV” it was -0.322; in that of “HMGRELSDLELSLLRILDDKIPLLIDEAADRLQLPVAQVLSAVTIMEIDGLIRREGMRKYLRTVEVEETK”, -0.499; in that of “HMPRPFPELTTREHDILALIARGWSNGRIADHLSLSGKTVSNYVSNILGKLQVTARAEAAERAREAGMGQ”, -0.00905.
“HMENRILLSEDSLKHLAQDIPIDIIEKLSVLKDQIYHRYDDFNSIVQGLLGGENYLKYKDNILSFVEQ”: the “soluble fraction (log2)” value worked out at 0.0624.
Then “HMTGSAETRGITLTDEQVTVWAKDGSWANYVYRATDGNWYDGSGRLYYENGGGEWTQAATGEQGS”, with -0.0258.
As to “HMTNQEFNAAFKPFLDYFPTTEMTKEKINIYYLALSDLSKEQLGSAFISMVKNRVYKNFPQVAEIRQYATN”, the “soluble fraction (log2)” value was -0.0953.
Turning to “HMKKYLTETEAAAYLNMPVEEIKAAITKGEIEQYVKTSSGYTISVEELDKFFGQKAYDTMTSNNS”, the “soluble fraction (log2)” value came to 0.174.
Then “HMSKSIELMNEIKKYIEEYYLQYRQSPSTTKIAEAVGIARGTAYKYLVEMSERNMIEYDGQEISTEVTRKY”, with -0.0213; and “HMLIDQYPYSIIYRLIPHGRSNAVPAAQIVGLTKLDERSIRIYVEAMRREGHIIASSSKGYYFPASIEE”, with -2.83; and “HMSTEDYLKTIYILESQQGVHGSDVARMLKVTRPTVSIALKALEQEGYVWMDESRLVHLTDSGLQIAKDT”, with -1.12.
Then “HMPTITIQRGIILSSTTKGFIDELSHSQIKNAIVERLGEHHVMIHESQLDAVIKYAQKKEAVINIYL”, with -0.0325; and “HMEPVIELGDRTLPIEITRHRRARRLTLRLAADGSAVRITLPHWARSAEATAFAHARRDWLAAQLAK”, with 0.0378.
Then “HMDRSRAEIDLGHVETAIRTLAEGGMVQEYAIGGRSLKRYKMGELLQLKAELENEINMERRKEKMRQ”, with 0.197.
“HMTYVSVSNYIGTNVDKAKGELESQGLVVLLEEQKTEDKSQDGMVLKQTIEGGTKVSSGSRITLIYGRYT”: the “soluble fraction (log2)” value was 0.197.
Then “HMPQVALAIDEMKRELASPDIVKTLLATTFKGLSEVNMRQAMLDGMIQGHTIADFFKKDVYAIPFGSGYSL”, with 0.0921; and “HMVSGLEILKIQVQDHPSDWRWALLLARTHYENGNREAAVRTLRPLQRLHPDRLEVMTLWALLA”, with -0.00253.
Regarding “HMTDRKRDAIVQAAIGEFREHGFNGTSMDRVAAAADVSKRTVYNHFPSKEELFEAILLLMWE”, the “soluble fraction (log2)” value was -2.09.
Then “HMKNIMRQWIELEPDQGKIRSKLYSLDRVVEETTNEVGMIKLLLEIDEKELNNLVSHNDIRLV”, with -0.21.
In the case of “HMKHKGILTTWNDDRGFGFITPKEGKEPVFVHISAFARGQGRPVLNASLTYRLVRDDQQRPRAEAVRL” it was -1.15.
In the case of “HMTSAIAEGTVIRLTQSTNIRESMSEDAPKVATAFSGEKVTVIMSYAEGWTKVTYGDKTGYIKTELL” it was -0.184; in that of “HMQSQIAQLYNPLLGYVKKRINSREDAEDLTQDIFLKLSKSNKDGVDNLKSWLYTIAKNTITDYYRKKKII”, 0.15.
In the case of “HMQIIETTVGRVLFNEKVPEAAGYINEVLTKKSLRDIIHGILKKTSVPETAAFLDEIKSLGYNFAF”, the “soluble fraction (log2)” value was -0.066.
In the case of “HMDWREMTAWMAELLKRRTGDDVETWNARVRESGAHDEASLRAWLTEQGVTGYAQTLLVMERFGYPDFF” it was -1.22; in that of “HMNMAVELEDGTQIFVFSEDGEFAGKRAVIADEEGRPTEENAPAGTHTLRDGRSIVVGEGGVIESVVET”, 0.0438; in that of “HMPASTSIPYSDFISRVESGDVQEAKIGESAITGTYKDGSQFKTVKPPTLDTNLMPTLIQNKVNVVGVEP”, 0.18.
In the case of “HMGKPTPASQVATRWLAGDLPETLPVAGPAPSFETLARSVSTDFHPRAVLQELLRLGVAEEADGRVRLLK”, the “soluble fraction (log2)” value stood at 0.00959.
Then “HMHVGVWIMNEKGEILLEQRASNKKVDPNKWARIGGHVDAGEKPIQAIQREILEEIGVKIPLENFIVLET”, with -0.335; and “HMAQLVVTVDKLNKRTAIPVTLSDKSSNDSVVEKGFRFEGFPFVNTATNGKKWYKDREGFFYWAGGLMEEA”, with 0.0125.
In the case of “HMEIPRYRLIGADGGRMVDLGEGQGAIPPVDVKRGMIDMPGLGKGYYTADGKSAVITNADGSKTRVL” it was -0.034.
Turning to “HMGLLLSQLDKDYQRYIDLADSTFRDNQLAVSRGWYNRALGVKAAEKYPKDQIAEIEKKIAERM”, the “soluble fraction (log2)” value is -0.181.
In the case of “HMAFAQMAQEAAKGKDDFNDLRQEMEAVIKEQPHILLMAQFGQNPYEIAYQEAKRRKAQDQQQQQ” it was 0.288.
Then “HMAVLGIQPVFHRSTGQTVYKSSVNTAKGRVYLGLFPTLTEALEIKLKYMQEHGHTKGITNLTNKLKEL”, with -1.17.
